# Tested on: Aβ levels in HEK293APP stable cells
# Experiment: Aβ ELISA, HEK293APP stable cells treated with TAT fusion peptides
# Type: cell-based
# Conditions: Table 8; HEK293APP stable cells; TAT = 1
# Method: (§1) Upon collecting the culture medium of the cells, Aβ40 and Aβ42 levels were quantified with sandwich ELISA kit, respectively (purchased from Invitrogen). The forebrain of the mouse was dissected and separated, and then homogenized with GuHCL. After that, total Aβ was determined by ELISA. For determining TBST(Tris-Buffered Saline and 1% TritonX100, 1% SDS, 1% DOC) soluble and insoluble Aβ, upon TBST homogenation and centrifugation of the forebrain of the mouse, the supernatant was determined for TBST soluble Aβ by ELISA, and the precipitate was determined for TBST insoluble Aβ by ELISA upon another GuHCL homogenate.
# In this Example, the second transmembrane domain (487-507aa, TM2) was selected to fuse with cell penetrating peptide TAT and the fusion peptide TAT-TM2 and the mutant thereof TAT-TM2mut were obtained. Their effects on Aβ levels were examined in HEK293APP stable cells.
# 6.1.2 The Effect of Different Doses of Fusion Protein TAT-TM2 on Aβ Levels in HEK293APP Stable Cells were Determined.
# To search for shorter fragments which could inhibit Aβ levels, TM2 was divided into N- and C-terminals and fused with TAT respectively. The effects of TAT-TM2-N, TAT-TM2-C and TAT-TM2-C mutant on Aβ levels in HEK293APP cells was examined.
Molecule,Aβ40,Aβ42
"TAT-TM2-mut: mutated TAT-TM2 peptide, SEQ ID NO.:22, TSCFSWMEMLIISDDIGMDDAGRKKRRQRRRC (fusion protein)",0.89 ± 0.07,0.93 ± 0.09

# Same assay, conditions: Table 9; TAT-TM2 variants, HEK293APP cells; TAT = 1
Molecule,Aβ40,Aβ42
"TAT-TM2-C-m1: TAT-TM2-C mutant, SEQ ID NO.:25, DDSWVIGMIWAGRKKRRQRRRC (fusion protein)",0.54 ± 0.01,0.33 ± 0.07
"TAT-TM2-C-m2: TAT-TM2-C mutant, SEQ ID NO.:26, IISDDIGMIWAGRKKRRQRRRC (fusion protein)",1.09 ± 0.10,1.04 ± 0.15
"TAT-TM2-C: C-terminal of TM2 fused with TAT, SEQ ID NO.:24, IISWVIGMIWAGRKKRRQRRRC (fusion protein)",0.71 ± 0.07,0.72 ± 0.03
"TAT-TM2-C-m3: TAT-TM2-C mutant, SEQ ID NO.:27, IISWVIGMDDAGRKKRRQRRRC (fusion protein)",1.07 ± 0.11,1.07 ± 0.13
"TAT-TM2-N: N-terminal of TM2 fused with TAT, SEQ ID NO.:23, TSCFSWMEMLGRKKRRQRRRC (fusion protein)",0.97 ± 0.04,0.97 ± 0.04

# Tested on: Aβ levels in HEK293APP stable cells
# Experiment: Aβ ELISA of culture medium, HEK293APP stable cells transfected with TRPC plasmids
# Type: cell-based
# Conditions: Table 1; HEK293APP stable cell, 1 ug plasmid, medium ELISA after 48 hr; empty vector = 1
# Method: as §1
# HEK293APP stable cell line was cultured in DMEM culture solution (containing 200 ng/ml G418) with 10% FBS. C0S7C99 cells were cultured in MEM/F12 culture solution (containing 0.4 ug/ml hygromycin B) with 5% FBS, 1% NEAA, and 200 mM Glutamax. All the transfection was conducted by using Lipofectamin 2000 (Invitrogen).
# HEK293 cells were inoculated to 60 mm dishes. When the density was close to 80%, 4 ug APP plasmid was transfected with Lipofectamine 2000. After 4 h, the culture medium was replaced and 400 ng/ml of G418 was added. Cells were passage 2 days later and G418 in the culture was maintained at 400 ng/ml. After 2-3 weeks, the cells not transected died gradually, and the survived cells were HEK293 cells expressing APP. Then, G418 was reduced to and maintained at 200 ng/ml.
# TRPC6 or TRPC5 was overexpressed in HEK293APP stable cell lines respectively (Cells were passaged into 12-well plates till the densities were close to 80%. Each well was transfected with 1 ug plasmid using Lipofectamine 2000, and the Aβ levels in the medium were determined with ELISA after 48 hr).
# Afterwards, HEK293APP stable cells were passaged in 12-well plate till the density approached 80%. Each well was transfected with lug plasmid using Lipofectamine 2000, and the Aβ levels in the culture medium were determined with ELISA after 48 h. The targeting fragment was primarily narrowed down to 437-507aa.
# The […] of TRPC6 contains the first transmembrane regions(TM1), the first extracellular loop (Loop1), and the second transmembrane regions (TM2). To further narrow down the active domain, we constructed 3 variant plasmids, with TM2 region replacement by TM1 region (C6-mut1), reversal of TM2 sequence (C6-mut2) or point mutations within TM2 region(C6-mut3). Then HEK293APP stable cells were passaged in 12-well plate. When the density was close to 80%, every well was transfected with lug plasmid using Lipofectamine 2000, and the Aβ levels in the medium were determined with ELISA after 48 h. The active fragment was further narrowed down to 487-507aa.
Molecule,Aβ40,Aβ42
"TRPC5: TRPC family member TRPC5, overexpressed from plasmid as comparison (protein, UniProt Q9UL62 1-973, looked up, full-length, TRPC family member TRPC5, overexpressed from plasmid as comparison) MAQLYYKKVNYSPYRDRIPLQIVRAETELSAEEKAFLNAVEKGDYATVKQALQEAEIYYNVNINCMDPLGRSALLIAIENENLEIMELLLNHSVYVGDALLYAIRKEVVGAVELLLSYRRPSGEKQVPTLMMDTQFSEFTPDITPIMLAAHTNNYEIIKLLVQKRVTIPRPHQIRCNCVECVSSSEVDSLRHSRSRLNIYKALASPSLIALSSEDPILTAFRLGWELKELSKVENEFKAEYEELSQQCKLFAKDLLDQARSSRELEIILNHRDDHSEELDPQKYHDLAKLKVAIKYHQKEFVAQPNCQQLLATLWYDGFPGWRRKHWVVKLLTCMTIGFLFPMLSIAYLISPRSNLGLFIKKPFIKFICHTASYLTFLFMLLLASQHIVRTDLHVQGPPPTVVEWMILPWVLGFIWGEIKEMWDGGFTEYIHDWWNLMDFAMNSLYLATISLKIVAYVKYNGSRPREEWEMWHPTLIAEALFAISNILSSLRLISLFTANSHLGPLQISLGRMLLDILKFLFIYCLVLLAFANGLNQLYFYYETRAIDEPNNCKGIRCEKQNNAFSTLFETLQSLFWSVFGLLNLYVTNVKARHEFTEFVGATMFGTYNVISLVVLLNMLIAMMNNSYQLIADHADIEWKFARTKLWMSYFDEGGTLPPPFNIIPSPKSFLYLGNWFNNTFCPKRDPDGRRRRRNLRSFTERNADSLIQNQHYQEVIRNLVKRYVAAMIRNSKTHEGLTEENFKELKQDISSFRYEVLDLLGNRKHPRSFSTSSTELSQRDDNNDGSGGARAKSKSVSFNLGCKKKTCHGPPLIRTMPRSSGAQGKSKAESSSKRSFMGPSLKKLGLLFSKFNGHMSEPSSEPMYTISDGIVQQHCMWQDIRYSQMEKGKAEACSQSEINLSEVELGEVQGAAQSSECPLACSSSLHCASSICSSNSKLLDSSEDVFETWGEACDLLMHKWGDGQEEQVTTRL",0.9900 ± 0.02548,0.9488 ± 0.02053

# Same assay, conditions: Table 4; TRPC6 fragments, HEK293APP stable cells, 48 h; empty vector = 1
Molecule,Aβ40,Aβ42
"725/930aa: TRPC6 fragment 725~930aa expressed from plasmid (protein, UniProt Q9Y210 725-930, looked up, fragment) AMINSSFQEIEDDADVEWKFARAKLWFSYFEEGRTLPVPFNLVPSPKSLFYLLLKLKKWISELFQGHKKGFQEDAEMNKINEEKKLGILGSHEDLSKLSLDKKQVGHNKQPSIRSSEDFHLNSFNNPPRQYQKIMKRLIKRYVLQAQIDKESDEVNEGELKEIKQDISSLRYELLEEKSQNTEDLAELIRELGEKLSMEPNQEETN",1.007 ± 0.07289,0.9822 ± 0.0099
"437/633aa: TRPC6 fragment 437~633aa expressed from plasmid (protein, UniProt Q9Y210 437-633, looked up, fragment) RGPFMKFVAHAASFTIFLGLLVMNAADRFEGTKLLPNETSTDNAKQLFRMKTSCFSWMEMLIISWVIGMIWAECKEIWTQGPKEYLFELWNMLDFGMLAIFAASFIARFMAFWHASKAQSIIDANDTLKDLTKVTLGDNVKYYNLARIKWDPSDPQIISEGLYAIAVVLSFSRIAYILPANESFGPLQISLGRTVKD",0.8146 ± 0.07986,0.7096 ± 0.09708
"389/510aa: TRPC6 fragment 389~510aa expressed from plasmid (protein, UniProt Q9Y210 389-510, looked up, fragment) SIWYENLSGLRQQTMAVKFLVVLAVAIGLPFLALIYWFAPCSKMGKIMRGPFMKFVAHAASFTIFLGLLVMNAADRFEGTKLLPNETSTDNAKQLFRMKTSCFSWMEMLIISWVIGMIWAEC",0.5959 ± 0.08036,0.6131 ± 0.1299
"508/633aa: TRPC6 fragment 508~633aa expressed from plasmid (protein, UniProt Q9Y210 508-633, looked up, fragment) AECKEIWTQGPKEYLFELWNMLDFGMLAIFAASFIARFMAFWHASKAQSIIDANDTLKDLTKVTLGDNVKYYNLARIKWDPSDPQIISEGLYAIAVVLSFSRIAYILPANESFGPLQISLGRTVKD",1.016 ± 0.04396,1.042 ± 0.02037
"1/405aa: TRPC6 fragment 1~405aa expressed from plasmid (protein, UniProt Q9Y210 1-405, looked up, fragment) MSQSPAFGPRRGSSPRGAAGAAARRNESQDYLLMDSELGEDGCPQAPLPCYGYYPCFRGSDNRLAHRRQTVLREKGRRLANRGPAYMFSDRSTSLSIEEERFLDAAEYGNIPVVRKMLEECHSLNVNCVDYMGQNALQLAVANEHLEITELLLKKENLSRVGDALLLAISKGYVRIVEAILSHPAFAEGKRLATSPSQSELQQDDFYAYDEDGTRFSHDVTPIILAAHCQEYEIVHTLLRKGARIERPHDYFCKCNDCNQKQKHDSFSHSRSRINAYKGLASPAYLSLSSEDPVMTALELSNELAVLANIEKEFKNDYKKLSMQCKDFVVGLLDLCRNTEEVEAILNGDVETLQSGDHGRPNLSRLKLAIKYEVKKFVAHPNCQQQLLSIWYENLSGLRQQTMAV",0.9674 ± 0.06376,0.9822 ± 0.03662
"389/930aa: TRPC6 fragment 389~930aa expressed from plasmid (protein, UniProt Q9Y210 389-930, looked up, fragment) SIWYENLSGLRQQTMAVKFLVVLAVAIGLPFLALIYWFAPCSKMGKIMRGPFMKFVAHAASFTIFLGLLVMNAADRFEGTKLLPNETSTDNAKQLFRMKTSCFSWMEMLIISWVIGMIWAECKEIWTQGPKEYLFELWNMLDFGMLAIFAASFIARFMAFWHASKAQSIIDANDTLKDLTKVTLGDNVKYYNLARIKWDPSDPQIISEGLYAIAVVLSFSRIAYILPANESFGPLQISLGRTVKDIFKFMVIFIMVFVAFMIGMFNLYSYYIGAKQNEAFTTVEESFKTLFWAIFGLSEVKSVVINYNHKFIENIGYVLYGVYNVTMVIVLLNMLIAMINSSFQEIEDDADVEWKFARAKLWFSYFEEGRTLPVPFNLVPSPKSLFYLLLKLKKWISELFQGHKKGFQEDAEMNKINEEKKLGILGSHEDLSKLSLDKKQVGHNKQPSIRSSEDFHLNSFNNPPRQYQKIMKRLIKRYVLQAQIDKESDEVNEGELKEIKQDISSLRYELLEEKSQNTEDLAELIRELGEKLSMEPNQEETN",0.7699 ± 0.07728,0.7217 ± 0.0695

# — patent US9790551B2, “Use of TRPC6 mRNA levels in peripheral blood cells for early detection/diagnosis of senile dementia” (Aging Wise Biotechnology, Inc., priority 2013, dated 2017)
